Test results reported in patent US20240392004A1 (IMMUNOWAKE, published 2024).

Columns and labels:
Assay in all cases: cell-based or functional assay
[1] = molecular target: T1, human TIGIT on HEK-Blue reporter cells (human, UniProt Q495A1 22-244)
T1 sequence (looked up): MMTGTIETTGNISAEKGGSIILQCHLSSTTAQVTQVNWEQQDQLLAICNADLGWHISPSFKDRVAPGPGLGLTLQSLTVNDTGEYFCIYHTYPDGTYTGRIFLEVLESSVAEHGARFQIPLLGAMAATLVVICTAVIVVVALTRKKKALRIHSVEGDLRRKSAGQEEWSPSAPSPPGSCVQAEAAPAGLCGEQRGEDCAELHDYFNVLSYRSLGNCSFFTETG

[2] = molecular target: human IL-12 receptor complex (IL-12Rβ1 and IL-12Rβ2) (human, UniProt P42701 24-662; Q99665 24-862)
[3] = molecular target: T2, IFN-γ receptor (IFNGR1 and IFNGR2) (UniProt P15260 18-489; P38484 22-337, limits assumed)
T2 sequence (looked up) 1: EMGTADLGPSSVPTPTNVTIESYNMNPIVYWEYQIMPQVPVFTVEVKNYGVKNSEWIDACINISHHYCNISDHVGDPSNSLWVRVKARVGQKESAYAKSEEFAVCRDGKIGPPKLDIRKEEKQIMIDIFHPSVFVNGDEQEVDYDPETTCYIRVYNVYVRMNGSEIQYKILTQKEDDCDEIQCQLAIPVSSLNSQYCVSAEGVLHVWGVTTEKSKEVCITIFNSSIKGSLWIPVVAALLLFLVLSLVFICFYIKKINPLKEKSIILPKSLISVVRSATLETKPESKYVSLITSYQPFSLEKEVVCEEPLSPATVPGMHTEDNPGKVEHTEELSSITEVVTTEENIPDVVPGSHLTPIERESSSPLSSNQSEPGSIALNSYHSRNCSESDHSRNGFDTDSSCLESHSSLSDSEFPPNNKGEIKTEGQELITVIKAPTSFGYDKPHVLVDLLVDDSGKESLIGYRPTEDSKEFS
T2 sequence (looked up) 2: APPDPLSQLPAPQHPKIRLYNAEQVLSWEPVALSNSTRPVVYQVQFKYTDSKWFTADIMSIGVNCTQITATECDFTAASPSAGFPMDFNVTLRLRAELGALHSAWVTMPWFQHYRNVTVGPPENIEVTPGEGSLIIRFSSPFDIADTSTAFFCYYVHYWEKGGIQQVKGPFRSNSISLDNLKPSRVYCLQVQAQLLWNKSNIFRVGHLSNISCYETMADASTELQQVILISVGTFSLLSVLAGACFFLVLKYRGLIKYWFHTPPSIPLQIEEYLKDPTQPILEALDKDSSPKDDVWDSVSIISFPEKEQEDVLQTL

Chain of human IL-12 receptor complex (IL-12Rβ1 and IL-12Rβ2) (Q99665 24-862, chain 2 of 2, other chains not shown): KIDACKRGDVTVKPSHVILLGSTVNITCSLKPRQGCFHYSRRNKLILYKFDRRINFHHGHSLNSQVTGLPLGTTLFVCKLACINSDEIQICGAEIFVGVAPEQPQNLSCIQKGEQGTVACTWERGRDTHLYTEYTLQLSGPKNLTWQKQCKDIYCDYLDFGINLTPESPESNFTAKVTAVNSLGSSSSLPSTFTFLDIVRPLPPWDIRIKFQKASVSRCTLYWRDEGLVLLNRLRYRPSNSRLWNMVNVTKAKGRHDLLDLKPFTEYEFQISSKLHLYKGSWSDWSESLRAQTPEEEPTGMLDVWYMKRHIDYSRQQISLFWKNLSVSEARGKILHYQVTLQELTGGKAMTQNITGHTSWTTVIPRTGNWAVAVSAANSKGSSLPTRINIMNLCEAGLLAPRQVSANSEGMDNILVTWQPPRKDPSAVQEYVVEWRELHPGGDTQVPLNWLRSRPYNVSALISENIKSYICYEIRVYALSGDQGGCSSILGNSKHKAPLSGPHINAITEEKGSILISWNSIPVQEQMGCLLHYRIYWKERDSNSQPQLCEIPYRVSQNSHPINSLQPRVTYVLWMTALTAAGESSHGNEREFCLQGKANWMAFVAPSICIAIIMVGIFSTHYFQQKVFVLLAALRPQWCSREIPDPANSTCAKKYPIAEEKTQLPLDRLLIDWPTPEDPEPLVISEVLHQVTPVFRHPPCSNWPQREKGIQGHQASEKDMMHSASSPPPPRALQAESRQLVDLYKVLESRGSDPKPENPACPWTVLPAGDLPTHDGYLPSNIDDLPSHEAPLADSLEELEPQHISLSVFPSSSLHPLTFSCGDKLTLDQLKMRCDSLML

B1: IL-12(E59A/F60A)/IFN-γ(A23V/A23V)/CD155-Fc (Fc fusion)
chain 1: WPPPGTGDVVVQAPTQVPGFLGDSVTLPCYLQVPNMEVTHVSQLTWARHGESGSMAVFHQTQGPSYSESKRLEFVAARLGAELRNASLRMFGLRVEDEGNYTCLFVTFPQGSRSVDIWLRVLAKPQNTAEVQKVQLTGEPVPMARCVSTGGRPPAQITWHSDLGGMPNTSQVPGFLSGTVTVTSLWILVPSSQVDGKNVTCKVEHESFEKPQLLTVNLTVYYPPEVSISGYDNNWYLGQNEATLTCDARSNPEPTGYNWSTTMGPLPPFAVAQGAQLLIRPVDKPINTTLICNVTNALGARQAELTVQVKEGPPSEHSGISRNGGGGSGGGIWELKKDVYVVELDWYPDAPGEMVVLTCDTPEEDGITWTLDQSSEVLGSGKTLTIQVKAAGDAGQYTCHKGGEVLSHSLLLLHKKEDGIWSTDILKDQKEPKNKTFLRCEAKNYSGRFTCWWLTTISTDLTFSVKSSRGSSDPQGVTCGAATLSAERVRGDNKEYEYSVECQEDSACPAAEESLPIEVMVDAVHKLKYENYTSSFFIRDIIKPDPPKNLQLKPLKNSRQVEVSWEYPDTWSTPHSYFSLTFCVQVQGKSKREKKDRVFTDKTSATVICRKNASISVRAQDRYYSSSWSEWASVPCSGGGGSGGGSGGGGSRNLPVATPDPGMFPCLHHSQNLLRAVSNMLQKARQTLEFYPCTSEEIDHEDITKDKTSTVEACLPLELTKNESCLNSRETSFITNGSCLASRKTSFMMALCLSSIYEDLKMYQVEFKTMNAKLLMDPKRQIFLDQNMLAVIDELMQALNFNSETVPQKSSLEEPDFYKTKIKLCILLHAFRIRAVTIDRVMSYLNASGGGGSGGGDKTHTCPPCPAPEDEGGPSVFLFPPKPKDTLMISRTPEVTCVVVDVSHEDPEVKFNWYVDGVEVHNAKTKPREEQYNSTYRVVSVLTVLHQDWLNGKEYKCKVSNKALPAPIEKTISKAKGQPREPQVYVYPPSREEMTKNQVSLTCLVKGFYPSDIAVEWESNGQPENNYKTTPPVLDEDGSFALVSKLTVDKSRWQQGNVFSCSVMHEALHNHYTQKSLSLSPGK
chain 2: WPPPGTGDVVVQAPTQVPGFLGDSVTLPCYLQVPNMEVTHVSQLTWARHGESGSMAVFHQTQGPSYSESKRLEFVAARLGAELRNASLRMFGLRVEDEGNYTCLFVTFPQGSRSVDIWLRVLAKPQNTAEVQKVQLTGEPVPMARCVSTGGRPPAQITWHSDLGGMPNTSQVPGFLSGTVTVTSLWILVPSSQVDGKNVTCKVEHESFEKPQLLTVNLTVYYPPEVSISGYDNNWYLGQNEATLTCDARSNPEPTGYNWSTTMGPLPPFAVAQGAQLLIRPVDKPINTTLICNVTNALGARQAELTVQVKEGPPSEHSGISRNGGGSGQDPYVKEAENLKKYFNAGHSDVVDNGTLFLGILKNWKEESDRKIMQSQIVSFYFKLFKNFKDDQSIQKSVETIKEDMNVKFFNSNKKKRDDFEKLTNYSVTDLNVQRKAIHELIQVMAELSPAAKTGKRKRSQMLFRGGGGSGGGGSGGGGSGGGGSQDPYVKEAENLKKYFNAGHSDVVDNGTLFLGILKNWKEESDRKIMQSQIVSFYFKLFKNFKDDQSIQKSVETIKEDMNVKFFNSNKKKRDDFEKLTNYSVTDLNVQRKAIHELIQVMAELSPAAKTGKRKRSQMLFRGGGGGSGGGDKTHTCPPCPAPEKKGGPSVFLFPPKPKDTLMISRTPEVTCVVVDVSHEDPEVKFNWYVDGVEVHNAKTKPREEQYNSTYRVVSVLTVLHQDWLNGKEYKCKVSNKALPAPIEKTISKAKGQPREPQVYVLPPSREEMTKNQVSLLCLVKGFYPSDIAVEWESNGQPENRYMTWPPVLDSDGSFFLYSKLTVDKSRWQQGNVFSCSVMHEALHNHYTQKSLSLSPGK
IL-12 signal transduction, HEK-IL-12-TIGIT [1]: 40%
IL-12 signal transduction, HEK-IL-12 [2]: < 0.2%
IFN-γ signal transduction, HEK-IFN-γ [3]: < 0.2%

B2: IFN-γ(A23V/A23V)/CD155-Fc (Fc fusion)
chain 1: WPPPGTGDVVVQAPTQVPGFLGDSVTLPCYLQVPNMEVTHVSQLTWARHGESGSMAVFHQTQGPSYSESKRLEFVAARLGAELRNASLRMFGLRVEDEGNYTCLFVTFPQGSRSVDIWLRVLAKPQNTAEVQKVQLTGEPVPMARCVSTGGRPPAQITWHSDLGGMPNTSQVPGFLSGTVTVTSLWILVPSSQVDGKNVTCKVEHESFEKPQLLTVNLTVYYPPEVSISGYDNNWYLGQNEATLTCDARSNPEPTGYNWSTTMGPLPPFAVAQGAQLLIRPVDKPINTTLICNVTNALGARQAELTVQVKEGPPSEHSGISRNGGGGSGGGDKTHTCPPCPAPEDEGGPSVFLFPPKPKDTLMISRTPEVTCVVVDVSHEDPEVKFNWYVDGVEVHNAKTKPREEQYNSTYRVVSVLTVLHQDWLNGKEYKCKVSNKALPAPIEKTISKAKGQPREPQVYVYPPSREEMTKNQVSLTCLVKGFYPSDIAVEWESNGQPENNYKTTPPVLDEDGSFALVSKLTVDKSRWQQGNVFSCSVMHEALHNHYTQKSLSLSPGK
chain 2: WPPPGTGDVVVQAPTQVPGFLGDSVTLPCYLQVPNMEVTHVSQLTWARHGESGSMAVFHQTQGPSYSESKRLEFVAARLGAELRNASLRMFGLRVEDEGNYTCLFVTFPQGSRSVDIWLRVLAKPQNTAEVQKVQLTGEPVPMARCVSTGGRPPAQITWHSDLGGMPNTSQVPGFLSGTVTVTSLWILVPSSQVDGKNVTCKVEHESFEKPQLLTVNLTVYYPPEVSISGYDNNWYLGQNEATLTCDARSNPEPTGYNWSTTMGPLPPFAVAQGAQLLIRPVDKPINTTLICNVTNALGARQAELTVQVKEGPPSEHSGISRNGGGSGQDPYVKEAENLKKYFNAGHSDVVDNGTLFLGILKNWKEESDRKIMQSQIVSFYFKLFKNFKDDQSIQKSVETIKEDMNVKFFNSNKKKRDDFEKLTNYSVTDLNVQRKAIHELIQVMAELSPAAKTGKRKRSQMLFRGGGGSGGGGSGGGGSGGGGSQDPYVKEAENLKKYFNAGHSDVVDNGTLFLGILKNWKEESDRKIMQSQIVSFYFKLFKNFKDDQSIQKSVETIKEDMNVKFFNSNKKKRDDFEKLTNYSVTDLNVQRKAIHELIQVMAELSPAAKTGKRKRSQMLFRGGGGGSGGGDKTHTCPPCPAPEKKGGPSVFLFPPKPKDTLMISRTPEVTCVVVDVSHEDPEVKFNWYVDGVEVHNAKTKPREEQYNSTYRVVSVLTVLHQDWLNGKEYKCKVSNKALPAPIEKTISKAKGQPREPQVYVLPPSREEMTKNQVSLLCLVKGFYPSDIAVEWESNGQPENRYMTWPPVLDSDGSFFLYSKLTVDKSRWQQGNVFSCSVMHEALHNHYTQKSLSLSPGK
IFN-γ signal transduction, HEK-IFN-γ [3]: < 0.2%
